Experimental data taken from patent US11306156.
Several values for one entry are separate records, joined by “and”; a condition that tells them apart may be missing. Identical values can stand only once.

Key:
[1] = target: D3H44 light chain Q38E_Q124E_Q160E_T180E; assay: LCCA, SPR tag readout, L1:L2 DNA 1:3 normalized to 1:1; competitor m20
[2] = target: D3H44 light chain Q124E_Q160E_T180E_C214S; assay: as above
[3] = target: D3H44 light chain P44F_S131K; assay: LCCA, SPR tag readout, L1:L2 DNA 1:3 normalized to 1:1; competitor m19
[4] = target: D3H44 light chain P44F_S131K; assay: LCCA, SPR tag readout, L1:L2 DNA 1:9 normalized to 1:1; competitor m22
[5] = target: D3H44 light chain Q124E_Q160E_T180E_C214S; assay: LCCA, SPR tag readout, L1:L2 DNA 1:9 normalized to 1:1; competitor m20
[6] = target: D3H44 light chain P44F_S131K; assay: LCCA, SPR tag readout, L1:L2 DNA 1:3 normalized to 1:1; competitor m22
[7] = target: D3H44 light chain Q124E_V133G_S176D_T178E_T180E; assay: LCCA (co-expression, SPR tag read-out), L1:L2 DNA 1:3 normalised to 1:1; competing light chain m7
[8] = target: D3H44 light chain V133G_S176D_T178D_T180E; assay: as above
[9] = target: D3H44 light chain Q124E_V133G_S176D_T178D_T180E; assay: as above
[10] = target: D3H44 light chain V133G_S176D_T178E_T180E; assay: as above
[11] = target: D3H44 light chain Q124E_V133G_S176D_T178E_T180E; assay: LCCA (co-expression, SPR tag read-out), L1:L2 DNA 1:9 normalised to 1:1; competing light chain m8
[12] = target: D3H44 light chain V133G_Q160E_S176D_T180E; assay: as above
[13] = target: D3H44 light chain Q124E_V133G_S176D_T178E_T180E; assay: LCCA (co-expression, SPR tag read-out), L1:L2 DNA 1:3 normalised to 1:1; competing light chain m8
[14] = target: D3H44 light chain V133G_S176D_T178D_T180E; assay: as above
[15] = target: D3H44 light chain V133G_Q160E_S176D_T180E; assay: as above
[16] = target: D3H44 light chain Q124E_V133G_S176D_T178D_T180E; assay: as above
[17] = target: D3H44 light chain V133G_S176D_T178E_T180E; assay: as above
[18] = target: D3H44 light chain Q38R_Q124R_Q160K_T178R; assay: LCCA, SPR tag readout, L1:L2 DNA 1:3 normalized to 1:1; competitor m19
[19] = target: D3H44 light chain Q38E_Q124E_Q160E_T180E; assay: LCCA, SPR tag readout, L1:L2 DNA 1:3 normalized to 1:1; competitor m26
[20] = target: tissue factor (TF) antigen (UniProt P13726); assay: SPR (ProteOn), Fab captured via anti-penta-His, TF injected, 1:1 fit; reference wild-type D3H44 Fab; batch C (+)
[21] = target: tissue factor (TF) antigen (UniProt P13726); assay: SPR (ProteOn), Fab captured via anti-penta-His, TF injected, 1:1 fit; batch C (+)
[22] = target: tissue factor (TF) antigen (human (from the antibody's name 'anti-human tissue factor'; not stated for the antigen lot in the assay)) (UniProt P13726); assay: SPR (ProteOn XPR36): Fab captured via His tag on anti-penta His surface, TF injected, 1:1 fit
[23] = target: tissue factor (TF) antigen (human (from the antibody's name 'anti-human tissue factor'; not stated for the antigen lot in the assay)) (UniProt P13726); assay: SPR (ProteOn XPR36), Fab captured on anti-penta His, TF analyte; against wild-type D3H44 Fab
[24] = target: tissue factor (TF) antigen (UniProt P13726); assay: SPR (ProteOn XPR36), Fab captured on anti-penta-His surface, TF injected as analyte, 1:1 fit; reference wild-type D3H44 Fab
[25] = target: tissue factor (TF) antigen (UniProt P13726); assay: SPR (ProteOn XPR36), Fab captured on anti-penta-His surface, TF injected as analyte, 1:1 fit
[26] = target: tissue factor (TF) antigen (UniProt P13726); assay: SPR (ProteOn XPR36), Fab captured on anti-penta-His surface, TF injected as analyte, 1:1 fit; marked * (estimated from a Fab that differs only in the L chain tag); reference wild-type D3H44 Fab
[27] = target: tissue factor (TF) antigen (UniProt P13726); assay: SPR (ProteOn XPR36), Fab captured on anti-penta-His surface, TF injected as analyte, 1:1 fit; marked * (estimated from a Fab that differs only in the L chain tag)
[28] = target: D3H44 Fab heavy chain Q179K, ABD2-His6 tagged; assay: LCCA, SPR of light chain tags; L1:L2 DNA 1:9 normalized to 1:1; competing light chain m16
[29] = target: D3H44 Fab heavy chain L143E_K145T_Q179E, ABD2-His6 tagged; assay: as above
[30] = target: D3H44 Fab heavy chain Q179R, ABD2-His6 tagged; assay: as above
[31] = target: D3H44 Fab heavy chain Q179K, ABD2-His6 tagged; assay: LCCA, SPR of light chain tags; L1:L2 DNA 1:3 normalized to 1:1; competing light chain m16
[32] = target: D3H44 Fab heavy chain L143E_K145T_Q179E, ABD2-His6 tagged; assay: as above
[33] = target: D3H44 Fab heavy chain Q179R, ABD2-His6 tagged; assay: as above
[34] = target: D3H44 Fab heavy chain L124W_L143F_K145T_Q179E, ABD2-His6 tagged; assay: LCCA, SPR of light chain tags; L1:L2 DNA 1:3 normalized to 1:1; competing light chain m14
[35] = target: D3H44 Fab heavy chain L143E_K145T_Q179D, ABD2-His6 tagged; assay: LCCA, SPR of light chain tags; L1:L2 DNA 1:3 normalized to 1:1; competing light chain m19
[36] = target: D3H44 Fab heavy chain L143E_K145T_Q179E, ABD2-His6 tagged; assay: as above
[37] = target: D3H44 Fab heavy chain S186K, ABD2-His6 tagged; assay: as above
[38] = target: D3H44 Fab heavy chain S186R, ABD2-His6 tagged; assay: as above
[39] = target: tissue factor (TF) antigen (UniProt P13726); assay: SPR (ProteOn XPR36), Fab captured on anti-penta His, TF injected at 0.74-60 nM, 1:1 model; median

An H1L1:H1L2 normalized median ratio [1] of 6%, an H2L2:H2L1 normalized median ratio [1] of 6% and an H1L1:H1L2 normalized median ratio [2] of 4% were found for D3H44 Fab heavy chain L45P_K145T_Q179E in this work. The H2L2:H2L1 normalized median ratio [2] was 4%, the H1L1:H1L2 normalized median ratio [3] was 94% and the H1L1:H1L2 normalized median scalar value ln(r1/f1) [3] was 2.83. For the same substance, the H2L2:H2L1 normalized median ratio [3] was 94%, the H1L1:H1L2 normalized median ratio [4] was 93% and the H1L1:H1L2 normalized median scalar value ln(r1/f1) [4] was 2.54. The H2L2:H2L1 normalized median ratio [4] was 93%, the H1L1:H1L2 normalized median ratio [5] was 7% and the H2L2:H2L1 normalized median ratio [5] was 7%. It also gave an H1L1:H1L2 normalized median ratio [6] of 96%, an H1L1:H1L2 normalized median scalar value ln(r1/f1) [6] of 3.19 and an H2L2:H2L1 normalized median ratio [6] of 96%.
D3H44 Fab heavy chain L124E_K145T_Q179E was tested, and the H1L1:H1L2 normalized median ratio [7] was 5 parts of 100, the H1L1:H1L2 normalized median ratio [8] was 5 parts of 100 and the H1L1:H1L2 normalized median ratio [9] was 4 parts of 100. The H1L1:H1L2 normalized median ratio [10] was 5 parts of 100, the H1L1:H1L2 normalized median ratio [11] was 3 parts of 100 and the H1L1:H1L2 normalized median ratio [12] was 5 parts of 100. The H1L1:H1L2 normalized median ratio [13] was 3 parts of 100, the H1L1:H1L2 normalized median ratio [14] was 4 parts of 100 and the H1L1:H1L2 normalized median ratio [15] was 4 parts of 100. The H1L1:H1L2 normalized median ratio [16] was 4 parts of 100 and the H1L1:H1L2 normalized median ratio [17] was 3 parts of 100.
In the case of D3H44 Fab heavy chain L124R_Q179K, the H2L2:H2L1 normalized median ratio [7] is reported as 93 parts of 100, the H2L2:H2L1 normalized median ratio [10] is reported as 93 parts of 100 and the H2L2:H2L1 normalized median ratio [11] is reported as 91 parts of 100. For the same substance, the H2L2:H2L1 normalized median ratio [12] was 94 parts of 100, the H2L2:H2L1 normalized median ratio [13] was 92 parts of 100 and the H2L2:H2L1 normalized median ratio [15] was 91 parts of 100. The H2L2:H2L1 normalized median ratio [17] was 92 parts of 100.
In the case of D3H44 Fab heavy chain L124R_S186K, the H2L2:H2L1 normalized median ratio [8] is reported as 91 parts of 100, the H2L2:H2L1 normalized median ratio [9] is reported as 92 parts of 100 and the H2L2:H2L1 normalized median ratio [14] is reported as 90 parts of 100. For the same substance, the H2L2:H2L1 normalized median ratio [16] was 91 parts of 100.
With “D3H44 Fab heavy chain Q39E_L143E_K145T_Q179E” the H1L1:H1L2 normalized median ratio [18] was 97%, the H1L1:H1L2 normalized median scalar value ln(r1/f1) [18] was 3.58 and 1.58 and the H1L1:H1L2 normalized median ratio [19] was 3%.
A change in median KD compared to wild type, -(log(KD design)-log(KD wt)) [20] of 0.02 and a Kd [21] of 0.15 nM were found for “D3H44 Fab heterodimer (H1L1) of LCCA Set # 9851: H1 S186K, L1 Q124E_T178E_T180E” in this work.
A change in median KD compared to wild type, -(log(KD design)-log(KD wt)) [20] of 0.41 and a Kd [21] of 0.06 nM were found for “D3H44 Fab heterodimer (H1L1) of LCCA Sets # 9829, 9830: H1 S186K, L1 Q124E_Q160E_T178E” in this work.
A change in median KD compared to wild type, -(log(KD design)-log(KD wt)) [20] of 0.05 and a Kd [21] of 0.14 nM were found for “D3H44 Fab heterodimer (H1L1) of LCCA Sets # 9979, 9983: H1 Q179K, L1 S131E” in this work.
A Kd [22] of 0.16 nM and a Change in median values of KD of h1l1 Fab heterodimer compared to wild type (-(log(KD design)-log(KD wt))) [23] of -0.01 were found for “D3H44 Fab heterodimer, H1 A139C_L143E_K145T_Q179E / L1 F116C_Q124R_T178R (H1L1 Fab of LCCA set 9049)” in this work.
A Kd [22] of 0.2 nM and a Change in median values of KD of h1l1 Fab heterodimer compared to wild type (-(log(KD design)-log(KD wt))) [23] of -0.12 were found for “D3H44 Fab heterodimer, H1 L124E_L143E_K145T / L1 Q124K_V133G_Q160K_S176R (H1L1 Fab of LCCA set 9277)” in this work.
A Change in median KD of h1l1 Fab heterodimer compared to wild type (-(log(KD design)-log(KD wt))) (log(KD) difference) [24] of -0.26 and a Kd [25] of 0.28 nM were found for “D3H44 H1L1 Fab heterodimer, H1 L124E_L143E_K145M, L1 Q124K_V133G_Q160K_S176R” in this work.
A Change in median KD of h1l1 Fab heterodimer compared to wild type (-(log(KD design)-log(KD wt))) (log(KD) difference) [24] of -0.12 and a Kd [25] of 0.2 nM were found for “D3H44 H1L1 Fab heterodimer, H1 L124E_L143E_K145T, L1 Q124K_V133G_Q160K_S176R” in this work.
A Change in median KD of h1l1 Fab heterodimer compared to wild type (-(log(KD design)-log(KD wt))) (log(KD) difference) [26] of -0.07 and a Kd [27] of 0.18 nM were found for “D3H44 H1L1 Fab heterodimer, H1 L124E_L143E_K145T, L1 Q124K_V133G_S176R_T178R” in this work.
An H2L2:H2L1 normalized median ratio [28] of 89%, an H1L1:H1L2 normalized median ratio [29] of 15% and an H2L2:H2L1 normalized median ratio [30] of 85% were found for “D3H44 light chain Q124E_T178E, HA or FLAG tagged” in this work. It also gave an H2L2:H2L1 normalized median ratio [31] of 96%, an H1L1:H1L2 normalized median ratio [32] of 14% and an H2L2:H2L1 normalized median ratio [33] of 97%.
An H2L2:H2L1 normalized median ratio [34] of 31% was found for “D3H44 light chain Q124E_V133W_S176T_T178L_T180E, HA or FLAG tagged” in this work.
An H1L1:H1L2 normalized median ratio [35] of 84%, an H1L1:H1L2 normalized median scalar value ln(r1/f1) [35] of 1.63 and an H1L1:H1L2 normalized median ratio [36] of 84% were found for “D3H44 light chain Q124R_T178K, HA or FLAG tagged” in this work. For the same substance, the H1L1:H1L2 normalized median scalar value ln(r1/f1) [36] was 1.69, the H2L2:H2L1 normalized median ratio [37] was 3% and the H2L2:H2L1 normalized median ratio [38] was 3%.
A Kd [39] of 0.157 nM was found for “wild-type D3H44 Fab heterodimer where the light chain contains a FLAG tag” in this work.
